Measured values as given in publication PMC3365070, “Overexpression of a Maize Sulfite Oxidase Gene in Tobacco Enhances Tolerance to Sulfite Stress via Sulfite Oxidation and CAT-Mediated H2O2 Scavenging” (PLoS ONE, 2012).

Substrate: O=S(O)O
Experiment: purified protein
Format: biochemical, Zea mays
Details: 400 µM ferricyanide as electron acceptor, sulfite 2.5-400 µM, 20 mM Tris-HCl pH 8.0 (general SO assay)

B1: ZmSO (recombinant maize sulfite oxidase) (Zea mays subsp. mays) (protein)
chain: MPGLTAPSDYAEEPPRHPALKINSKEPFNAEPHRSELVASYITPVDFFYKRNHGPIPKVEDLSRYTVSISGLVNKSIQLSMADIWSLPKYNVTATLQCAGNRRTAMSNVRKVRGVGWDISALGTATWGGAKLSDVLELVGIPKLSSVTSLGGKHVEFVSVDKCKEEKGGPYTASIPLNQATNPDADVLLAYEMNGEVLNRDHGYPLRVVVPGVIGARSVKWLDSINVKEEECQGFFMQKDYKMFPPTVDWDNINWSTRRPQMDFPVQSAICTLEDVDVIKEGQARIAGYALSGGGRGIERVDVSADGGKTWVEARRYQKDNVAYVSDGPQSDKWAWVLFEATLDVPANPEIVVKAVDSAANVQPEKVEDIWNLRGILNTSWHRIKIQRSSCVERSKL
notes: 45 kDa; Mo domain, no heme domain; primers give N-terminus MPGLTA
Km: 21.4 ± 0.32 µM
